T1: SARS-CoV spike peptide #154, PELDSFKEELDKYFKNH (SARS-CoV residues 1125–1141); corresponding to SARS-CoV-2 … (SARS-CoV, residues 1125-1141)
T1 construct: also called 17-residue peptide
T1 chain: PELDSFKEELDKYFKNH

B1: antibody WS6 (IgG) (antibody, V domains shown)
VH: EVQFQQSGTVLARPGASVKMSCKASGYTFTNYWIHWVKQRPGQGLEYIGGTYPGNGDTTYNQKFKGKAKVTAVTPTSTAYMDLSSLTNEDSAVYYCTRTGSYFDYWGQGTTLTVSS
VL: QIVLTQSPAIMSASPGEKVTISCSATSSVSYIYWYQQRPGSSPKPWIYRTSNLASGVPVRFSGSGSGTSYSLTISNMEAEDAATYYCQQYQSYPPTFGAGTKLELK
notes: also called mAb WS6
B2: antigen-binding fragment (Fab) of WS6 (Fab, V domains shown)
VH: B1 VH
VL: B1 VL
notes: also called Fab WS6; WS6 Fab; source: generated from the mAb with the Pierce Fab kit

How the values were obtained:
[1] = target: T2, SARS-CoV-2 spike S2 subunit (SARS-CoV-2, UniProt P0DTC2); assay: far-Western, overlay or dot blot; settings: both partners purified
T2 construct: also called S2 domain

[2] = target: T1, SARS-CoV spike peptide #154, …; assay: far-Western, overlay or dot blot; settings: both partners purified
[3] = target: T3, hCoV-HKU1 full-length spike, expressed on the cell surface (hCoV-HKU1 isolate N1 (AAT98580.1), UniProt Q5MQD0); assay: flow cytometry on cells; settings: one partner purified
T3 construct: also called hCoV-HKU1 spike; source: Expi-293 cells, transiently transfected, on the cell surface

[4] = target: T4, MERS-CoV full-length spike, expressed on the cell surface (MERS-CoV EMC/2012 (GenBank AFS88936), UniProt K0BRG7); assay: flow cytometry on cells; settings: one partner purified
T4 construct: also called MERS-CoV spike; MERS-CoV EMC

[5] = target: T5, hCoV-OC43 full-length spike, expressed on the cell surface (hCoV-OC43 (AAT84354.1), UniProt P36334); assay: flow cytometry on cells; settings: one partner purified
T5 construct: also called hCoV-OC43 spike; source: Expi-293 cells, transiently transfected, on the cell surface

[6] = target: T6, SARS-CoV-2 full-length spike, expressed on the cell surface (SARS-CoV-2 WA-1 (GenBank QHD43416.1), UniProt P0DTC2); assay: flow cytometry on cells; settings: one partner purified
T6 construct: also called SARS-CoV-2 spike; WA-1 spike; source: Expi-293 cells, transiently transfected, on the cell surface

[7] = target: SARS-CoV-2 spike receptor-binding domain (RBD) (SARS-CoV-2, UniProt P0DTC2); assay: ELISA; settings: both partners purified
[8] = target: hCoV-OC43 prefusion-stabilized spike (S2P) (hCoV-OC43 (AAT84354.1), UniProt P36334, stabilised); assay: ELISA; settings: both partners purified
[9] = target: SARS-CoV-2 spike N-terminal domain (NTD) (SARS-CoV-2, WA-1 / Wuhan-Hu-1, UniProt P0DTC2); assay: ELISA; settings: both partners purified
[10] = target: hCoV-HKU1 prefusion-stabilized spike (S2P) (hCoV-HKU1 isolate N1 (AAT98580.1), UniProt Q5MQD0, stabilised); assay: ELISA; settings: both partners purified
[11] = target: SARS-CoV-2 S1R (spike residues 1–537) (SARS-CoV-2, UniProt P0DTC2); assay: ELISA; settings: both partners purified
[12] = target: SARS-CoV-2 S-dTM (soluble spike protein residues 1–1206 of wildtype WA-1 strain) (SARS-CoV-2 WA-1, UniProt P0DTC2); assay: ELISA; settings: both partners purified
[13] = target: T7, SARS-CoV-2 S1-short (spike residues 1–670) (SARS-CoV-2, UniProt P0DTC2); assay: ELISA; settings: both partners purified
T7 construct: also called S1-short1

[14] = target: T2, SARS-CoV-2 spike S2 subunit; assay: negative-stain EM; settings: both partners purified

Binder	binding result [1]	binding result [2]	binding result [3]	binding result [4]	binding result [5]	binding result [6]	binding result [7]	binding result [8]	binding result [9]	binding result [10]	binding result [11]	binding result [12]	binding result [13]	binding result [14]
B1	binds	binds	binds	binds	binds	binds	no binding	binds	no binding	binds	no binding	binds	no binding	
B2														binds

— publication doi:10.1101/2022.01.25.477770 (bioRxiv, 2022)
